Test results reported in article doi:10.1101/487769.
“And” between values parts separate entries of the source, which are not always exact repeats. Identical values can stand only once.

Molecular target: Hfq-FLAG (Yersinia pestis Hfq with C-terminal 3 x Flag tag) (Yersinia pestis)
Test: native gel or EMSA

“Hfq-FLAG (Yersinia pestis Hfq with C-terminal 3 x Flag tag) (natural protein)” was tested, and the stoichiometry N was 3 and 6.
